# Measurements reported in a protein production outcome set (Wang et al. 2014).
# Experiment: label from the status in PepcDB records
row,Sequence,protein production
1,MNDRKILVAYFSCSGVTKAVAEKLAAITGADLYEIKPEVPYTEADLDWNDKKSRSSVEMRDALSRPAISGTLFHPEKYEVLFVGFPVWWYIAPTIINTFLESYDFAGKIVVPFATSGGSGIGNCEKNLHKAYPDIVWKDGKLLNGQITRDLVTEWFEKIRL,not failed
2,MNDSIKKINYLFICLFIFLNPLIPYNVKIHNNITVSDILLLVIFVLFLVEILRNRQKLKECFYIMLGDKTLFCLILLFIVMMISVTYAKEKPLALEESLRFFCYIGLYIILSLSYREEKHFKGFVTSFVASVTLISIIGIFQKITGMGIPHQYDYKVNGVTMVRVAAVFGNPNTLAAFMILSIFPIVMFAFFEKNLKKKAFYSILSVLIVYNAALTGSRNSYMGLALGFCVLALIYSIKLILPIIVLGGASMFLPQVTSRLRSIDNKNLNDARIKLWKTALKMIKDHPLSGVGNGNYIANYDAYVKQYPELRYADYSRFPVHNSYLKIESELGIFGGIFFVATIVNVFLKLYNTYKKTDIKIKKAFYLGFIASTSAFLFMNFSDNLLFVPSITSFFWMFVAIGDRH,failed
3,MNDTLLNAYSGIKTHQFGIDSLSNNIANVNTLGYRSNDPEFKTLFSSHLDALNAKSVVANDRNYGVTGSGNVLSNKDGEYMPSEGEFHMAYQGKGWFVIGPNKNGEITINKDGFSKKQDNFLTRAGNFARDADGYLVTPEGYYVYGIDLKKIKDGTLNSTARDEDIEKLHGNTLSPLQIPQDLTYQPVLSTKVNISVNLNPKDHLKGVQDFFLNDKGEIIKERFLNQDINALANNDNEPIDAITNRKLNISIQKEDGKKEDFVFTYGDAEKGENQFKTLGDLQKLLKEKTGLDLNLIKSEKDAKSPPLLLEIANPSQTPITFSLSGGIADKLGLKADGMELKKGISRDSVAIKIPYYSTEVDIYDKAGDKYLLQSEYYMTNSNDPTSSPTSKRKNQTWEVKSYIADPKNKTPINDPTWEIVGFDSATHKMKSAPMTLDFKGNKLTYSLDKSENHDSSDLSYQDSKLLEASQDGKPRGIFRDMRIEENGVISLAFSNGVVEPVARIGILAFTNDQGLRKIGGNLYEMQEGTINGENRPLSGNPILGWDEEGKLKFGKIRHKYLETSNVNAGNALTNLILMQRGYSMNARAFGAGDDMIKEAISLKK,failed
4,MNEIHQPLARRVWRSNVDEEMARMAECLKRFPLIAFDTEYPGIIFRTYFDSSSDECYRAMKGNVENTKLIQCGFTLFNAKGEIGGVWEINFSNFGDPSDTRNELSIEFLRRHGLDLQKIRDEGVDMFGYGFFPKLMTVFRSQKHVEFVTFQGAYDFAYFLSILNHGKLPETHGEFATEVVKVFGQVYDTKVMAGFCEGLGEHLGLSKLAQLLQITRVGRAHHAGSDSLMTALVFIKLKHVYEDSRFARGLIYGIGKSNLVAAPAPAPVPEPTLPLMCQQNVASYPVFHNGYVQNYEQPQLVSYDPSGAPWAFCNATGTYVQLTHLPASTFAYPSQTPSATVDYLGPVPNYYNNNACYVVE,failed
5,MNEIILITGAYGMVGQNTALYFKKNKPDVTLLTPKKSELCLLDKDNVQAYLKEYKPTGIIHCAGRVGGIVANMNDLSTYMVENLLMGLYLFSSALDSGVKKAINLASSCAYPKFAPNPLKESDLLNGSLEPTNEGYALAKLSVMKYCEYVSAEKGVFYKTLVPCNLYGEFDKFEEKIAHMIPGLIARMHTAKLKNEKEFAMWGDGTARREYLNAKDLARFISLAYENIASIPSVMNVGSGVDYSIEEYYEKVAQVLDYKGVFVKDLSKPVGMQQKLMDISKQRALKWELEIPLEQGIKEAYEYYLKLLEV,failed
6,MNEIYDREQMIKLLDLAKNTEMELPINLAIGLGLRISEVLGLTWDNIDFEENTITVNKITSRINGSVILKEPKTESSVRKISSPKELMSLLKEYKIKQNKNLLKSSIRNNNNLLFFNKKCEPIAEDVMSKKFKRFLEKNELPHIRFHDLRHSHVTLLINSKVPIKVISERVGHSNISTTLSVYSHVLKEMDKEASDKISESLFNANLEHHHHHH,not failed
7,MNEKKEQALFEYDAKLSISEAIPMGLQHVVAAVVGIVTPGIMIAKVCQLSPSDTTILIQTSLIFSAVATLIQLFPIFGKVGSRLPVMMGASFAYVPILMAIGADFGIAAIFGSQLVGSILVIIVGLFIKKIRVLFPPLVTGTVILSIGLSLFPVAIKYMAGGAGSADFGSARNWLVALLTFAIVFYFNYFAKGFLKLSAILNGMVIGYLISLALGMVSFEPVQNAKIVQVITPFHFGLDFQLVPIFTLVVMFIVDAVQAIGQFTATTVGAMDRDATDEELSGGIMGSGFTNFIGSLFGSIPVATFGQNVGLVTVTKVINKYVLVFASVILLIAGFVPKVAALLTTIPYAVIGGATISVFASISMTGIRMIASQEMTPRNTGVVGTALAFGIGVTLSTGSLAGFPTWVTTIFGNSEVILTTLVAVLLNVILKPKKRVALE,not failed
8,MNELTQSDNYQLLNRELAAPDPWGLDANPFERERHTQMLRLALAQGSISSALEVGCAAGAFTVQLAPHCKRLTVIDVVPQAIERSRRRIRGSPHISWIVSDVQQFSPDERFDLIVVAEVLYYIGGIAEMRGAVRNLVRMLAPDGYLVFGSARDANCRRWGHVAGAETILGMLNETLLEVERLECRGESVNEDCLLACFRNPFSAS,failed
9,MNENDKEYQASLKSLETENIIDRKFYRPIGFYFAKLLSRTRVTPNMVTILSIFVGLGGGLCFVHTPYDLRWAVAGILCMVVANIMDCIDGQLARLTGIKSEIGRILDGIAGDIWFACIYICFIIRLTAEYPDALGSMTTGILIAVGLLSGISHLVQAAVTDYYKTLHLFFISPEKGKEFERSTSIRRRVKAMPHGVNRLFSSLYYYYTLIQERATPRLQRLLDQLEADYPQNTIPETLRQHLRKDSRRIMNIVDFLTFNGRTIPLFLIVLSGHIWLYFVFEILILNTVLVLGIRRHEAMCRHHLKERR,failed
10,MNEQIPHDKSLDNSLTLLKEGYLFIKNRTERYNSDLFQARLLGKNFICMTGAEAAKVFYDTDRFQRQNALPKRVQKSLFGVNAIQGMDGSAHIHRKMLFLSLMTPPHQKRLAELMTEEWKAAVTRWEKADEVVLFEEAKEILCRVACYWAGVPLKETEVKERADDFIDMVDAFGAVGPRHWKGRRARPRAEEWIEVMIEDARAGLLKTTSGTALHEMAFHTQEDGSQLDSRMAAIELINVLRPIVAISYFLVFSALALHEHPKYKEWLRSGNSREREMFVQEVRRYYPFGPFLGALVKKDFVWNNCEFKKGTSVLLDLYGTNHDPRLWDHPDEFRPERFAEREENLFDMIPQGGGHAEKGHRCPGEGITIEVMKASLDFLVHQIEYDVPEQSLHYSLARMPSLPESGFVMSGIRRKS,not failed
11,MNEQPAACRIKVEALGAGFAPAAEQWAERLGLALQVDEAEFALQVGEQGLQLQQLGPDAPGPVRVDFVEGGAAHRRLYGGGSGQMIAKAVGVAQGVRPRVLDATAGLGKDGFVLATLGCEMSLIERQPLIGALLEDGLARAAQDAEVGPIVARMHLLKGNSIELMRNWQGEPPQVIYLDPMFPHREKSALVKKEMRLFRPLVGDDNDAPALLAAALALASHRVVVKRPRKAPCIEGPKPSHGLEGKSSRYDIYPKKALKALEHHHHHH,failed
12,MNERPATIEELICAAEARLRADPTQVKTVIEDLAHLEAQGYPAGPATVLIFDGNARVMSGDFAGARPVLEKGLALSTELEEPTLQVRALTGLAVLHVGTGAYGQALEYHMQSMQLARTLENGGLLSRSLIYVGSLYAALRNFEQAQAYHREAVEHAASAGRSTFMARLALATDEAQLGHLEEALQQRRELLVEARQTASRAEEAFVLADLAANLLQLDQRAEARQLASEALKRAEALGLQLEKGQALIILASLDIREGQFESAHQALHEVLEIGQRLASIQLLIPVHEELSRLFEQQGDFAGALRHTRVHYELKSSELTRLAERRSQVLEAELKVELLRQQAEEKERQNLALVAINEHLRETQKRLQYAATHDALTGLLVRTALEETVEDDLLLSPERRRALFMIDVDHFKQINDALGHHVGDRFLQELARRLRGALRPTDIVARQGGDEFTIYLRELDSPEEAVALGQQLLRDIAAPVQVEGHLLNVTVSIGIAVYPDDGRDVMTLEKHADLALYRAKEQRHQVCRFQKPAD,failed
13,MNESPKEGAGGAPDYDVWEAEVKSSRGLPLVWLIPLVALGIGIWLAYRTLSEEGPTITLLFKEAPGLEAGKSKIKFKDVEIGTVESVVLNEDLTGVVVTAKMEKHVATHLGENTAFWVVKPELGLGGVSGLDTLMAGNYIAVEFGGGKVVRRFVGLERPPRIKADTPGRSFFLSADNAGPLKYGTPVYFRDIEVGQVVNVGLAEDNRSVQVEIFIDAPYHRLVHNSTRFWQVSGIDLSLSAQGVNLKVGSIMSLLQGGITFETPTLNDPKVQSSEPNTRFRLHKDFASIAEGTYTLRQPYLLFFDDSVRGLNVGAPVELKGIRVGTVTELKLALDFGAHKIRIPVVIEIDPERLIPYGAEEIIERAKKEYKAAMEAGRRPFMEKLVERGLRARLRTGNLLTGQLYVDLDFYPESPPKSLDYSGQYPELPTLPSVADELQRNVTEIIANLKKIPLDKIGQELLGTVQGSNRLLNSPELKGAVGSLNLALKDLRHLAQTADREMVTLTSAAEKSLSSTARVLEQLEPGSAMAVDISNALEELAASARSIRALTDYLERHPEALLHGKGGSGGKP,failed
14,MNESVDTDEATTPLVSAIIPTYGRNERLSSAIQSVLEQTYDNIELFVVDDASPTPVRETLDSFDPTVENSFRILRHDENQGANAARNTGIRASDGRYVAFLDDDDQWDETKITKQVQAFQESDSETGVVYTGVRKDGPEGTTVSTPVASGDVMKDLLTGTNFGQFSSVMVDTTVIETAGLPDERLPAWQDREWFFRLAQHTHFRPVRETLTYRQTGLPGSITKKYEQKRDVAYPMLISKHDWVAAEYGIYYERMFKATMRRSLARSAVRADRYKEARKYFLLSALANPLYWPVYPHLFASLGGKWSYESIASLRQQVTNGPASGTLEHHHHHH,failed
15,MNEYDEECLLTFLKKQSQLFDEPVAETMEEAEAFLEDCMAVVVDSLDEVREYFEESGADVENMLEHHHHHH,not failed
16,MNFDLYMNGVVEQARNEIESAGYEQLTTAEDVDKVLKQDGTTLVMINSVCGCAGGIARPAASHALHYDVLPDRLVTVFAGQDKEATQRAREYFEGYAPSSPSFALVKDGKITEMIERHQIEGHDVMNVINQLQTLFNKYC,not failed
17,MNFDTIIIGGGMAGLSCALRCLEAGLKTAVIASGQSALHFSSGSIDVLAKTPSGKHVINPMDSLETFSKEYPSHPYAALGKETVERAINWYKTTLSAIGVPLTSQKDGLNHYRLTPLGTMKSTWLSQPFVHQFPMDLEKNKTQKMVLITIDGFRDFQPKLAQDNLKQITQLSDLEIATASISLSAFNDIQRNHCELRSIDISRLLSKRANRQELAYALQQHANPGDLVVLPSIFGNGTGLSYLREIEQLTKLTLCEVPTMPPSLLGIRLEESMKHAFIELGGTMLNGDHVVQGEFSYVDKSDPEHSHYRLNRLFTKNHGDFPLQAKQFVLATGSFFSQGLKANVDSMIEPIFGLDIAQSDKRTDWYSHDFFSTQSHPFLSMGIKTTANFQAIKSGHVIDNLYCAGAILSGYNPILEGSGSGVAISSGFHAAESIIEQLQCSDSLQNNNTKAEVAL,failed
18,MNFIRIVKFDFKNIIRNPMLLFFNTIFPLILIGSIGFVMKNGYGSFNVTSYDYYGVTMMIFTAFIICITASNTFMEKSVKKGNTRIVYAPVSKAEIYLSKIISTYILGSIFYSIIIVLGKYVLNINYGTRSTIYIIILINMLTLFGCCLGVLFCCIFKSEEGANSVLQIVIMLFIFFGGVFFPVYSLGKIVESISNLSPLKWITECIFRIIYDNDFSIYLPTIGVMLVSSIICIVICQIIFKPEEYV,failed
19,MNFKESRAIYLQIADRICDDILLGQYEEEGRIPSVREYASIVEVNANTVMRSYEYLQSQEVIYNKRGIGFFVASGAKMLIHSLRKEQFLKEEVGSFFRQLYTLGISIKEIEKMYYEFIQRQNQ,not failed
